Reference: paper PMC7290032 (Nature Communications, 2020)

Molecular target: MCM8-9 complex, purified (human, UniProt Q9NXL9-1 1-1143; Q9UJA3-1 1-840)
Test: cell-based or functional assay

Chain of MCM8-9 complex, purified (Q9NXL9 whole entry, chain 1 of 2): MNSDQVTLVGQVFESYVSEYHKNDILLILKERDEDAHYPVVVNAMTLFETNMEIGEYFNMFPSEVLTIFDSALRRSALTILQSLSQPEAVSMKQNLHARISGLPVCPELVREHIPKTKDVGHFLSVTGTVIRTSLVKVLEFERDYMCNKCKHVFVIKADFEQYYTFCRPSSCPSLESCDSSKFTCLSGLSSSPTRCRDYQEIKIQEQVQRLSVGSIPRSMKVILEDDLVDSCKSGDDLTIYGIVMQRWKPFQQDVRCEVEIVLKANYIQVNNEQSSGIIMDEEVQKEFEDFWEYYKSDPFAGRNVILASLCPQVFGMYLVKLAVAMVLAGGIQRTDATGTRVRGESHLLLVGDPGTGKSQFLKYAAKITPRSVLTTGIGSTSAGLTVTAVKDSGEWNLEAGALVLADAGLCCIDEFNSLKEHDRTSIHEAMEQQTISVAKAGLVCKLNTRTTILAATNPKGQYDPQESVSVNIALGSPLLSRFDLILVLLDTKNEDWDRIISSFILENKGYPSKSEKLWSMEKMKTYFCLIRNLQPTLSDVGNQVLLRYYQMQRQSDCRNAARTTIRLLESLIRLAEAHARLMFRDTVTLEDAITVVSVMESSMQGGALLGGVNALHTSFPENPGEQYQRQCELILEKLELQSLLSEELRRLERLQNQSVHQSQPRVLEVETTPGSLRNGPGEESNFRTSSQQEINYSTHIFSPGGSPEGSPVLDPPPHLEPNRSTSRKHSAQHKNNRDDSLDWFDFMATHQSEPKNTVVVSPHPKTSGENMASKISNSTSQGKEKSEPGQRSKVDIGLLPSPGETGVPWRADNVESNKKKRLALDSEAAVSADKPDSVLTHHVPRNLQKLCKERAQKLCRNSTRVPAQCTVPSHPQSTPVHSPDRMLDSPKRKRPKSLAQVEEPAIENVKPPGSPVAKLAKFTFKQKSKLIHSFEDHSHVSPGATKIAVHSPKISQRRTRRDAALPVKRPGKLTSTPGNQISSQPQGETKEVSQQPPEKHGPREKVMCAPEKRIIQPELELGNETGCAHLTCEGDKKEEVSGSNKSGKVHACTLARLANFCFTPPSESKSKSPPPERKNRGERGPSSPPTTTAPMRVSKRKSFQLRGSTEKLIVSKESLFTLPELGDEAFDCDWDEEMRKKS
Chain of MCM8-9 complex, purified (Q9UJA3 whole entry, chain 2 of 2): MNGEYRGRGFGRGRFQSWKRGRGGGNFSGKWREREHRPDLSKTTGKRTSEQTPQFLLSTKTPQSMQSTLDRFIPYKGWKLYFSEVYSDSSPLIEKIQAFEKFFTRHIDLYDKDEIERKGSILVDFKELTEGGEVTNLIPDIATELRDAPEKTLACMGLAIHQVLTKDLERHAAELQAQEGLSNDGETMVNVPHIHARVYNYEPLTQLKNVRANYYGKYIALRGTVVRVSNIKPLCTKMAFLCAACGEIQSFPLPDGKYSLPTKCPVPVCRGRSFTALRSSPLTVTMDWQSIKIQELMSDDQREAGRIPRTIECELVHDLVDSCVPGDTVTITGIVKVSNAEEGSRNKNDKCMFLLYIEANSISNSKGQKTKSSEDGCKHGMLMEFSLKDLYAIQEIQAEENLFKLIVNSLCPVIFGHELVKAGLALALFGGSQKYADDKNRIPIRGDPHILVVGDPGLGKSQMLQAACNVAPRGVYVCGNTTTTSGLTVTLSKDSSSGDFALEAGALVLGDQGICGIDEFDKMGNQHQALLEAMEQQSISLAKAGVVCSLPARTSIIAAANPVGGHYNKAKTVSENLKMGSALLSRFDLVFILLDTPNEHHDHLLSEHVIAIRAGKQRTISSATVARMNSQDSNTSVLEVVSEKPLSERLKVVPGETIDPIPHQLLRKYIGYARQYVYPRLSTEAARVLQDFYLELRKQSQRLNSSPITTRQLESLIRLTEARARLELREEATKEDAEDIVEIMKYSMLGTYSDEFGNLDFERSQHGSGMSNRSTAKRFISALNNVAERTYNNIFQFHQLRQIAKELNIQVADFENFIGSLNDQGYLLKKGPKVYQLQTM

DNA unwinding (helicase assay): 32P-labelled oligo annealed to M13mp18 ssDNA, MCM8-9 100 nM, MCM8IP 50 nM, with ATP: ~6 fold
B1: MCM8IP-FLAG WT (recombinant) (natural protein, human, UniProt Q8N3J3-4 1-646, looked up)
chain: MACSLQKLFAVEEEFEDEDFLSAVEDAENRFTGSLPVNAGRLRPVSSRPQETVQAQSSRLLLLHPTAPSEALGLPDLDLCLPASSTPSADSRPSCIGAAPLRPVSTSSSWIGNQRRVTVTEVLRETARPQSSALHPLLTFESQQQQVGGFEGPEQDEFDKVLASMELEEPGMELECGVSSEAIPILPAQQREGSVLAKKARVVDLSGSCQKGPVPAIHKAGIMSAQDESLDPVIQCRTPRPPLRPGAVGHLPVPTALTVPTQQLHWEVCPQRSPVQALQPLQAARGTIQSSPQNRFPCQPFQSPSSWLSGKAHLPRPRTPNSSCSTPSRTSSGLFPRIPLQPQAPVSSIGSPVGTPKGPQGALQTPIVTNHLVQLVTAASRTPQQPTHPSTRAKTRRFPGPAGILPHQQSGRSLEDIMVSAPQTPTHGALAKFQTEIVASSQASVEEDFGRGPWLTMKSTLGLDERDPSCFLCTYSIVMVLRKAALKQLPRNKVPNMAVMIKSLTRSTMDASVVFKDPTGEMQGTVHRLLLETCQNELKPGSVLLLKQIGVFSPSLRNHYLNVTPNNLVHIYSPDSGDGSFLKPSQPFPKDSGSFQHDVAAKPEEGFRTAQNLEAEASPEEELPEADDLDGLLSELPEDFFCGTSS
